Experiments:
GST-fused CNR2 C-tail = assay: GST-pull down, CNR2 C-tail; format: binding; conditions: central domain compared to full-length GASP-1
Description: cDNAs encoding the cytoplasmic C-tail of 14 GPCRs and 2 one-transmembrane receptors were cloned into the pGEX-2T prokaryotic expression vector downstream the GST sequence. […]
GST-fusion proteins were immobilized on glutathione-coupled Sepharose beads (GE Healthcare) for 1 h at 4°C and incubated with [^35S]-labelled in vitro translated GASP proteins or their truncated or mutated forms in ice-cold binding buffer containing: 20 mM Tris-HCl pH 7.4, 150 mM NaCl, 1 mM EDTA, 1 mM DTT, 10% glycerol and 1% Triton X-100. […] The supernatants were then analyzed by SDS-PAGE, the gels were stained with Coomassie blue to visualize GST-fusion proteins, dried and analyzed using a Phosphor-imager (Personal Molecular Imager FX, Biorad) to visualize [^35S]-labelled GASPs. Quantification was performed with the Quantity One software (Biorad). GST-pull down quantification data were analyzed using GraphPad Prism 4.03 (GraphPad Software). Quantifications presented are means of at least three independent experiments.

[1] = tested on: MyrPalm-mYFP in HEK293 cells; assay: Co-immunoprecipitation, MyrPalm-mYFP (negative control); format: cell-based; conditions: 48 h expression, anti-GFP immunoprecipitation
Description: HEK293 cells stably expressing N-terminal GFP-tagged ADRB1, ADRB2, CALCR and M1 or MyrPalm-mYFP were transfected with pcDNA3.1 containing the sequence for a central domain of GASP-1 (AA 380 to 1073) using JetPEI reagent (polyplus transfection) according to the instructions from the manufacturer. After 48 h of expression, cells were washed twice with PBS and lysed in a buffer containing 10 mM Tris-HCl, pH 7.4, 150 mM NaCl, 25 mM KCl, 0.3% Triton X-100 and cOmplete protease inhibitors (Roche) for 1 h at 4°C under agitation. 500 µg of cleared lysates were incubated with 1 µg of a mouse monoclonal anti-GFP antibody (Invitrogen) overnight at 4°C, followed by an incubation with 40 µl of protein A-Sepharose beads for an additional 2 h at 4°C. Beads were then washed five times in lysis buffer and precipitates were resolved on an 8% gel by SDS–PAGE and electrotransferred to immobilon-P membranes (Millipore) in 50 mM Tris-boric acid for 1 h at 300 mA. Membranes were blocked with 5% non-fat powder milk in TBS-Tween (50 mM Tris-HCl pH 8, 150 mM NaCl, 0.4% Tween-20) for 1 h at room temperature. […] For immunodetection of GASP or GFP-tagged receptors directly from cell lysates, 10 µg of proteins were loaded on SDS gels and analyzed following the procedure described above. Finally, membranes were washed in TBS-Tween and detected by chemiluminescence (ECL prime, GE Healthcare). […]

B1: central domain of GASP-1: central portion of GASP-1 (AA 380 to 1073) that contains 19 GASP motif (protein)
chain: MTKEEAKTKARARAKQEARSEEEALIGTWFWATDESSMADEASIESSLQVEDESIIGSWFWTEEEASMGTGASSKSRPRTDGERIGDSLFGAREKTSMKTGAEATSESILAADDEQVIIGSWFWAGEEVNQEAEEETIFGSWFWVIDAASVESGVGVSCESRTRSEEEEVIGPWFWSGEQVDIEAGIGEEARPGAEEETIFGSWFWAENQTYMDCRAETSCDTMQGAEEEEPIIGSWFWTRVEACVEGDVNSKSSLEDKEEAMIPCFGAKEEVSMKHGTGVRCRFMAGAEETNNKSCFWAEKEPCMYPAGGGSWKSRPEEEEDIVNSWFWSRKYTKPEAIIGSWLWATEESNIDGTGEKAKLLTEEETIINSWFWKEDEAISEATDREESRPEAEEGDIIGSWFWAGEEDRLEPAAETREEDRLAAEKEGIVGSWFGAREETIRREAGSCSKSSPKAEEEEVIIGSWFWEEEASPEAVAGVGFESKPGTEEEEITVGSWFWPEEEASIQAGSQAVEEMESETEEETIFGSWFWDGKEVSEEAGPCCVSKPEDDEEMIVESWFWSRDKAIKETGTVATCESKPENEEGAIVGSWFEAEDEVDNRTDNGSNCGSRTLADEDEAIVGSWFWAGDEAHFESNPSPVFRAICRSTCSVEQEPDPSRRPQSWEEVTVQFKPGPWGRVGFPSISPFRFPKE
modifications: left off: GST, N-terminal, kept
notes: central portion of GASP-1 (AA 380 to 1073) that contains 19 GASP motif
GST-fused CNR2 C-tail
  interaction with CNR2 C-tail: mandatory and sufficient for this interaction
[1]
  co-immunoprecipitation with MyrPalm-mYFP: no co-immunoprecipation was observed
